Results as given in PMC4267619.

Columns and labels:
YT521-B YTH domain [1] = biological target: T1, YT521-B YTH domain (Rattus norvegicus, UniProt Q9QY02 347-502); assay: ITC; 20 C; 125 uM RNA into 10 uM protein; 25 mM NaH2PO4, 25 mM NaCl, 10 mM beta-mercaptoethanol, pH 7; ITC and NMR titrations at 20 C, structure at 30 C
YT521-B YTH domain [2] = biological target: T1, YT521-B YTH domain; assay: ITC; 20 C; 410 uM RNA into 14 uM protein; 25 mM NaH2PO4, 25 mM NaCl, 10 mM beta-mercaptoethanol, pH 7; ITC and NMR titrations at 20 C, structure at 30 C

UGACAC (ssRNA, N6-methyladenosine at position 3) [5'-UGm6ACAC-3']
Kd (YT521-B YTH domain [1]): 0.1 µM

UGACAC (ssRNA) [5'-UGACAC-3']
Kd (YT521-B YTH domain [2]): 5 µM
